# Ends that are not written are not given here. GST = glutathione S-transferase tag encoded by vector pGEX-5X2
# What was measured:
# MBP-Tgat (aa 1-255) [1] = molecular target: MBP-Tgat (aa 1-255) (UniProt O75962); test: FRET mant-GTP nucleotide exchange kinetics; kobs against GST-TRIP peptide concentration (up to 100 µM), hyperbolic fit; RhoA 1 µM, Tgat 0.5 µM
# MBP-Tgat (aa 1-255) [2] = molecular target: MBP-Tgat (aa 1-255) (UniProt O75962); test: cell-based or functional assay
Binder,Ki (MBP-Tgat (aa 1-255) [1]) [µM],"efficiency at inhibiting the exchange activity of Tgat, against TRIPα (MBP-Tgat (aa 1-255) [2]) [fold]"
"{GST}-AREGADGAICGYNLATLVMLGPSERVFCPLCEPCSSDIYELM (peptide, not shown: a dimerising Fc or GST, cysteine pairing not given here; also: fused to GST, GST carrier and linker letters not given here) [GST-TRIPα]",89,
"AREGADGAICGYNLATLVMLGPSERVFCPLCGPCSSDIYELM (peptide, not shown: a dimerising Fc or GST; large carriers; small tags and cut ends, not fully specified (N-terminus); cysteine pairing not given here; also: fused to GST, GST carrier and linker letters not given here) [GST-TRIPE32G]",7.4,15
"AREGADGAICGYNLAMSVMLGPSERVFCPLCEPCSSDIYELM (peptide, not shown: a dimerising Fc or GST; large carriers; small tags and cut ends, not fully specified (N-terminus); cysteine pairing not given here; also: fused to GST, GST carrier and linker letters not given here) [GST-TRIPT16M/L17S]",5.1,15

# — US20120258099A1
